Assay results: article doi:10.1101/2023.06.19.545549, “DnaK duplicates and regionally evolves for the increase of proteomic complexity in bacteria” (bioRxiv, 2023)

Target: the molecule itself
Experiment: SDS-PAGE of the purified protein (monomer and dimer bands); purified MxDnaKs and chimeras on SDS-PAGE without DTT treatment; band compositions confirmed by LC/MS

B1: His6-MxDnaK2, purified recombinant (natural protein, Myxococcus xanthus DK1622, UniProt P95334 1-607, looked up)
chain: MGKVIGIDLGTTNSCVAVMEGGEPVVIPNSEGSRTTPSMVGFTDSGERLVGQIAKRQAITNPENTVFAAKRLIGRKFDSPEGKKAIGVSPFKVASSPNGDAWVEIRGKGYSPPEVSAIVLMKMKQTAEDYLGEQVSEAVITVPAYFNDSQRQATKDAGRIAGLSVLRIINEPTAAALAYGLDKVQDGGTERIAVYDLGGGTFDISILELNAGVFEVKSTNGDTFLGGEDFDQRLIDYLAKRFAESNNGLDLRKDRMALQRLKEAAERAKHELSSAPETEVNLPFITADASGPKHLTETVDRATFEALVTDLIDRTIEPCRIALKDAGIPAQQINQVLLVGGMTRMPRVQQKVKEFFGREPHKGINPDEVVAVGAAIQGGVLKGEVKDVLLLDVTPLSLGVETAGGVFTKIIDKNTTIPCKKSQVFSTAVDNQPLVSVHVLQGEREMAADNKTLARFELVGIPPAPRGVPQIEVSFDIDANGIVHVSAKDLGTGKVQQVRVVSNSGLSEAEIQAMISDAQSHASDDKKKKELAELRNNADGLIYTTEKSLEEYASLLSEKDREEIKADLERLKEVLNTSDAAVLKESFQRLEGSAYRIADAIYTGQAS
notes: MxDnaK2 (MXAN_6671), DnaK of Myxococcus xanthus DK1622; gene amplified from genomic DNA into pET28A; His6-MxDnaK2 printed as 65.3 kDa; source: E. coli BL21 (DE3), purified (Ni-NTA); not shown: His6, N-terminal, kept
B1 was tested, and the “stoichiometry N” value was 2.
